In patent US20120282269A1 (Boehringer Ingelheim, published 2012):
Where “and” joins values, the source holds several entries; their conditions need not be identical. Equal values may be shown once.

B1: 18C4 (antibody, V domains shown)
VH: EVQLQQSGPEVVKPGASVKMSCKASGYTFTSSVIHWVKQKAGQGLEWIGYINPYNDGTKYNEKFKGKATLTSDRSSSTAYMELSSLTSEDSAVYYCTRRLDEAYWGQGTLVTVSA
VL: DIVMTQSPATLSVTPGDRVSLSCRASQSISEYLHWYQQKSHESPRLLIKYASQSISGIPSRFSGSGSGSDFTLSINSVEPEDVGVYYCQNGHSFPFTFGSGTKLEIK
B2: 24A5 (antibody, V domains shown)
VH: EVQLQQSGPELVKPGASVKMSCKASGYTFTTSIMHWVKQKPGQGLEWIGYINPYDDVTKYNEKFKGKATLTSDKSSSTAYMELSSLTSEDSAVYYCVRRWDEAYWGQGTLVTVSA
VL: DIVMTQSPATLSVTPGNRVSLSCRASQSISDYLHWYQQKSHESPRLLIKYASQSISGIPSRFSGSGSGSNFTLSINSVEPEDVGVYYCQNGHSFPFTFGSGTKLEIK
B3: Chimeric 22E2 (antibody, V domains shown)
VH: EVQLQQSGPELVKPGASVKMSCKASGYTFTSSIIHWVKQRPGQGLEWIGYINPYDDVTKYNEKFKGKATLTSDKSSSTAYMELSSLTSEDSAVYYCARRWDESYWGQGTLVTVSA
VL: DIVMTQSPATLSVTPGDRVSLSCRASQSISVYLHWYQQKSPESPRLLIKYASQSISGIPSRFSGSGSGSDFTLSINSVEPEDVGVYYCQNGHSFPFTFGSGTKLEIK
B4: 31H9 (antibody, V domains shown)
VH: EVQLQQSGPELVKPGASVKMSCKASGYTFTRYLMHWVKQKPGQGLEWIGYINPYNDGTNYNEKFKGKATLTSDKSSSTAYMELSSLTSEDSAVYYCSLNWDYAYWGQGTLVTVSA
VL: DIVMTQSPATLSVTPGDRVSLSCRASQSISDYLHWYQQKSHESPRLLIKYASQSISGIPSRFSGSGSGSDFTLSINSVEPEDVGVYYCQNGHSFPYTFGGGTKLEIK
B5: 18E5 (antibody, V domains shown)
VH: EVQLQQSGPELVKPGAAVKMSCKASGYTFTRYLIHWVKQKPGQGLEWIGYINPYNDGTKYNEKFKGKATLTSDKSSSTAYMELSSLTSEDSAVYYCTSNWDLDYWGQGTTLTVSS
VL: DIVMTQSPATLSVTPGDRVSLSCRASQSISDYLYWYQQKSHESPRLLIKFASQSISGIPSRFTGSGSGSDFTLSIDSVEPDDVGVFFCQNGHSFPFTFGGGTKLEIK
B6: 18D3 (antibody, V domains shown)
VH: EVQLQQSGPELVKPGASVKMSCKASGYTFTRYLIHWVKQKPGQGLEWIGYINPYNDGTKYNEKFKGKATLTSDKSSSTAYMELSSLTSEDSAVYYCTSNWDLDYWGQGTTLTVSS
VL: DIVMTQSPATLSVTPGDRVSLSCRASQSISDYLYWYQQKSHESPRLLIKFASQSISGIPSRFTGSGSGSDFTLSIDSVEPDDVGVFFCQNGHSFPFTFGGGTKLEIK
B7: 20E8 (antibody, V domains shown)
VH: EVQLQQSGPELVKPGASVKMSCKASGYTFTSSVMHWVKQKAGQGLEWIGYINPYNDGTQYNEKFKGKATLTSDKFSSTAYMELSSLTSEDSAVYYCTRRLDEAYWGQGTLVTVSA
VL: DIVMTQSPATLSVTPGDRVSLSCRASQSISEYLHWYQQKSHESPRLLIKYASQSISGIPSRFSGSGSGSDFTLSINSVEPEDVGVYYCQNGHSFPFTFGSGTKLEIK
B8: 22E2 (antibody, V domains shown)
VH: EVQLQQSGPELVKPGASVKMSCKASGYTFTSSIIHWVKQRPGQGLEWIGYINPYDDVTKYNEKFKGKATLTSDKSSSTAYMELSSLTSEDSAVYYCARRWDESYWGQGTLVTVSA
VL: DIVMTQSPATLSVTPGDRVSLSCRASQSISVYLHWYQQKSPESPRLLIKYASQSISGIPSRFSGSGSGSDFTLSINSVEPEDVGVYYCQNGHSFPFTFGSGTKLEIK
B9: 2D1 (antibody, V domains shown)
VH: QVQLKESGPGLVAPSQSLSITCTVSGFSLTTYAISWVRQSPGKGLEWLGVIWTGGGTKYNSALKSRLSISKDNSKSQVFLKMNSLQTDDTARYYCARKDYNYGGAMDYWGQGTSVTVSS
VL: DIVLTQSPGSLAVSLGQRATISCRTSESVYSYGQNFIHWYQQKPGQPPKLLIYRASNLESGIPARFSGSGSRTDFTLTMNPVEADDVATYYCQQTNEDPYTFGGGTKLEIR
B10: 9D12 (antibody, V domains shown)
VH: QVQLKESGPVLVAPSQSLSITCTVSGFSLNNFAISWVRQPPGKGLEWLGAIWTGGGTNYNSALKSRLSISKDNSKSQVFLKMNSLQTDDTARYYCVRKDYSYGGAMDYWGQGTSVTVSS
VL: DIALTQSPASLAVSLGQRATISCRASETINFYGTSFMHWYQQKPGQSPKLLIYRASNLESGIPARFSGSGSRTDFTLTINPVEADDVATYYCQQTNEDPYTFGGGTKLEIK
B11: 73H10 (antibody, V domains shown)
VH: EVQLQQSGPELVKPGASVKMSCKASGYTFTRYVMHWVKQKPGQGLEWIGYINPYNDVTKYNEKFKGKATLTSDRSSSTAYMKLSSLTSEDSAVYYCARNWDVPYWGQGTLITVSA
VL: DIQMTQSPVFLSASVGETVTITCRASENIDSYLAWYQQKQGKSPQLLVFAARNLADGVPSRFSGSGSGTQYSLKINRMQSEDVARYYCQHYYSTPFTFGSGTKLEIE
B12: 74H3 (antibody, V domains shown)
VH: EVQLQQSGPELVKPGASVKMSCKASGYTFTRYLMHWVKQKPGQGLEWIGYINPYNDGTKYNERFKGKATLTSDKSSSTAYMELSSLTSEDSAVYYCARNWDVPYWGQGTLVTVSA
VL: DIQMTQSPASLSASVGETVIFTCRASENIDSYLAWYQQKQGKSPQLLVYAATNLADGVPSRFSGSGSGTQYSLKINSLQSEDVARYYCLHYYSTPFTFGSGTELEIK
B13: 27G8 (antibody, V domains shown)
VH: QVQLQQSDAELVKPGASVKISCKVSGYTFTDHTIHWMKQRPEQGLEWIGYIYPRDGYPKFNEKFKGKATLTADKSSSTAYMQLNSLTSEDSAVYFCARRPPYYAMDYWGQGTSVAVSS
VL: DIVLTQSPASLAVSLGQRATISCRASKSVSTSGYSYIHWYQQKPGQPPKFLIYLASNLDSGVPARFSGSGSGTDFTLNIHPVEEEDAATYYCQHSRELPYTFGGGTKLEIK
B14: 26F7 (antibody, V domains shown)
VH: EVQLQQSGPELVKPGASVKISCKASGYTFTDYYMNWVRQSHGESLEWIGDFNHNNDVITYNPKFKGKVTLTVEKSSTTAYMELRSLSSEDSAVYYCARGLRGYYAMDYWGQGTSVTVSS
VL: DIVLTQSPASLAVSLGQRATISCRASKSVRFSDYFYMHWYQQKPGQPPKLLIYLASNLESGVPARFSGSGSGTDFTLNIHPVEEEDAATYYCQNSRELPYTFGGGTKLEIK
B15: Mouse antibody 6B8 (antibody, V domains shown)
VH: QVQLQQSDAELVKPGTSVKTSCKISGNTFTDQTIHWMKQRPEQGLEWIGYIYPRDDSPKYNENFKGKATLTADKSSSTAYMQLNSLTSEDSAVYFCAIPDRSGYAWFIYWGQGTLVTVSS
VL: DIVMTQSHKFLSTSVGDRVTITCKASRDVAIAVAWYQQKPGQSPKLLLFWASTRHTGVPDRFTGSGSRTDFTLTISNVQSEDLADYFCHQYSSYPFTFGSGTKLEIK
B16: 15C11 (antibody, V domains shown)
VH: EVQLQQSGPVLVKPGASVKMSCKASGYTFTDYYMNWVKQSHGKSLEWIGVIIPYNGGTSYNQKFKGKATLTVDKSSSTAYMELNSLTSEDSAVYYCARDGHRWYFDVWGTGTTVTVSS
VL: DVVMTQTPLSLPVSLGDQASISCRSSQSLVHSNGNTYLHWYLQKPGQSPKLLIYKVSNRFSGVPDRFSGSGSGTDFTLKINRVEAEDLGVYFCSQSTHVPYTFGGGTQLEIK
B17: 34G3 (antibody, V domains shown)
VH: EFQLQQSGPELVKPGASVKISCKASGYSFTDYNMNWVKQSKGKSLEWIGVIIPNYGFTSYNQNFKGKATLTVDQSSSTAHMQLNSVTSEDSAVYYCVRDGGILLWYLDVWGTGTTVTVSS
VL: DVVMTQTPLSLPVSLGDQASISCRSSQSLVHSNGNTYLHWYLQKPGQSPKLLIYKVSNRFSGVPDRFSGSGSGTDFTLKISRVEAEDLGVYFCSQSTHVPYTFGGGTKLEIN
B18: 43F5 (antibody, V domains shown)
VH: EVQLQQSGPELVKPGASVKISCRASGYSFTGYYMNWVKQSPEKSLEWIGEIIPTTGGTSYNQKFKAKATLTVDKSSSTAYMQLKSLTSEDSAVYYCARESGGFYWYFDVWGTGTTVTVSS
VL: DVVMTQSPLSLPVSLGDQASISCRSSQSLVHSNGNTYLHWYLLKPGQSPKLLIYKVSNRFSGVPDRFSGSGSGTDFTLKISRVEAEDLGVYFCSQSTHVPYTFGGGTKLEIK

Columns and labels:
recombinant human IL-23 = biological target: T1, recombinant human IL-23 (human, UniProt P29460 23-328); assay: cell-based or functional assay
T1 sequence 1: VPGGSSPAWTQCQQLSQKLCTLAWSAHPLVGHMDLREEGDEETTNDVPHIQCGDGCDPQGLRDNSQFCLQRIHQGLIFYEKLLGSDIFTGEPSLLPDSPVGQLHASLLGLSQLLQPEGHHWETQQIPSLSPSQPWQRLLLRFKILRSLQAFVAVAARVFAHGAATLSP
T1 sequence 2: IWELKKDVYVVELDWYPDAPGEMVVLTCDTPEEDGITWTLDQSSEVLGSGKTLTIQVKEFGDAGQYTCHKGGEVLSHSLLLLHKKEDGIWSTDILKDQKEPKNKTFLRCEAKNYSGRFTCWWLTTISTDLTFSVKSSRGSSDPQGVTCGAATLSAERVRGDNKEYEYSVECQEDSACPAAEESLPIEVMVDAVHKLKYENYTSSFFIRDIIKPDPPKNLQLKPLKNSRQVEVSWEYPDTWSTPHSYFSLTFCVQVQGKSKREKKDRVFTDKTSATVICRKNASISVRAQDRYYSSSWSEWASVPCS

[1] = biological target: T2, natural human IL-23 from activated THP-1 cells (human, UniProt P29460 23-328); assay: cell-based or functional assay
T2 sequence 1: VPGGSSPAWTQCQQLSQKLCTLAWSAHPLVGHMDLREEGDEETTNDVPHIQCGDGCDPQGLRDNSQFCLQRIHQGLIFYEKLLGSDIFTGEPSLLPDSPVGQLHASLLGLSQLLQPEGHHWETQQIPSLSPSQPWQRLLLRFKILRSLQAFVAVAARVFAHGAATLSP
T2 sequence 2: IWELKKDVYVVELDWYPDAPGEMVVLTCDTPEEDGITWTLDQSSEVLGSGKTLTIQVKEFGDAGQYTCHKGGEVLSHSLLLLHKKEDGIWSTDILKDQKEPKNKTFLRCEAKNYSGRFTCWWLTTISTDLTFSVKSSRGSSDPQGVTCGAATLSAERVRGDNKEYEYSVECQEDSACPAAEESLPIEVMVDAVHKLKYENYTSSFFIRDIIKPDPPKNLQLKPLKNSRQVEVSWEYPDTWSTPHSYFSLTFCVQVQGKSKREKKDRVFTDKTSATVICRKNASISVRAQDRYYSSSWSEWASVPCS

IC50, inhibition of IL-17 production from IL-23 stimulated mouse splenocytes (recombinant human IL-23)	IC50, inhibition of IL-17 production from IL-23 stimulated mouse splenocytes [1]	Binder
0.471 nM		B1
0.022 nM and 0.037 nM	0.085 nM and 0.031 nM	B2
0.1 nM		B3
0.96 nM	2 nM	B4
	0.009 nM and 0.013 nM	B5
0.234 nM		B6
	0.438 nM and 0.561 nM	B7
0.061 nM and 0.13 nM		B8
	2.34 nM and 1.91 nM and 1.6 nM	B9
0.059 nM	0.281 nM and 0.138 nM	B10
1.41 nM		B11
1.35 nM		B12
0.235 nM	5 nM	B13
0.027 nM		B14
0.013 nM		B15
0.126 nM	0.232 nM	B16
0.336 nM	0.027 nM and 0.025 nM	B17
	8 nM	B18
